Experimental findings from patent US20180282410A1 (Hoffmann-La Roche, published 2018) are described below.

Like-named read-outs stand apart in the source and are kept apart here.

Common to all, as to test: cell-based or functional assay
Assay [1] deals with T1, full-length human Robo 4 (on cells) (human, UniProt Q8WZ75 28-1007).
T1 sequence: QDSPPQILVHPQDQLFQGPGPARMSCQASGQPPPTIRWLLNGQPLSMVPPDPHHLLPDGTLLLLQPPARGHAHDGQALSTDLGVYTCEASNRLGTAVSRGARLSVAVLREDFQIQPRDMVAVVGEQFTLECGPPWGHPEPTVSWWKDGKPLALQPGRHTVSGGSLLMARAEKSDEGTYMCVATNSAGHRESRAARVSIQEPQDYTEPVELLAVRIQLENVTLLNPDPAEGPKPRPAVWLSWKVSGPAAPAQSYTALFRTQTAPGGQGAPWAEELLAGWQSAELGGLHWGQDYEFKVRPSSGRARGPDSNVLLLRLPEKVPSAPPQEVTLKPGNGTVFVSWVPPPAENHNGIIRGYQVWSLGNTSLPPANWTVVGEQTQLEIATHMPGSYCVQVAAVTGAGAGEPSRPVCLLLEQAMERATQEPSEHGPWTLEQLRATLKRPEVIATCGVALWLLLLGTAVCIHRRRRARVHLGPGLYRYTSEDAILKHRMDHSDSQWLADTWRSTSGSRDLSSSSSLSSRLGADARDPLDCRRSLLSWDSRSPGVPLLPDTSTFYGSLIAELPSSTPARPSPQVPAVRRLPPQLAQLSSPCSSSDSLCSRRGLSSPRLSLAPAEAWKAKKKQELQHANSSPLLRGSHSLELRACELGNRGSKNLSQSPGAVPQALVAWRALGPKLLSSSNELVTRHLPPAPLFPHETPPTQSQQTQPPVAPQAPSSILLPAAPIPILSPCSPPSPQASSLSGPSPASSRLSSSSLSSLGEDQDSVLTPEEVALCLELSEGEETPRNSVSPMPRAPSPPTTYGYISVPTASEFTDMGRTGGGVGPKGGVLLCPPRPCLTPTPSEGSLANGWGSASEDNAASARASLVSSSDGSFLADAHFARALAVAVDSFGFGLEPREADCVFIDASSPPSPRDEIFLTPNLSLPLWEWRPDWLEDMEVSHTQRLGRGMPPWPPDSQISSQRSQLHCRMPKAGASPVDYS

For assay [2], the target named is T2, mouse Robo 4 on MS-1 mouse endothelial cells (mouse, UniProt Q8C310 28-1012).
T2 sequence: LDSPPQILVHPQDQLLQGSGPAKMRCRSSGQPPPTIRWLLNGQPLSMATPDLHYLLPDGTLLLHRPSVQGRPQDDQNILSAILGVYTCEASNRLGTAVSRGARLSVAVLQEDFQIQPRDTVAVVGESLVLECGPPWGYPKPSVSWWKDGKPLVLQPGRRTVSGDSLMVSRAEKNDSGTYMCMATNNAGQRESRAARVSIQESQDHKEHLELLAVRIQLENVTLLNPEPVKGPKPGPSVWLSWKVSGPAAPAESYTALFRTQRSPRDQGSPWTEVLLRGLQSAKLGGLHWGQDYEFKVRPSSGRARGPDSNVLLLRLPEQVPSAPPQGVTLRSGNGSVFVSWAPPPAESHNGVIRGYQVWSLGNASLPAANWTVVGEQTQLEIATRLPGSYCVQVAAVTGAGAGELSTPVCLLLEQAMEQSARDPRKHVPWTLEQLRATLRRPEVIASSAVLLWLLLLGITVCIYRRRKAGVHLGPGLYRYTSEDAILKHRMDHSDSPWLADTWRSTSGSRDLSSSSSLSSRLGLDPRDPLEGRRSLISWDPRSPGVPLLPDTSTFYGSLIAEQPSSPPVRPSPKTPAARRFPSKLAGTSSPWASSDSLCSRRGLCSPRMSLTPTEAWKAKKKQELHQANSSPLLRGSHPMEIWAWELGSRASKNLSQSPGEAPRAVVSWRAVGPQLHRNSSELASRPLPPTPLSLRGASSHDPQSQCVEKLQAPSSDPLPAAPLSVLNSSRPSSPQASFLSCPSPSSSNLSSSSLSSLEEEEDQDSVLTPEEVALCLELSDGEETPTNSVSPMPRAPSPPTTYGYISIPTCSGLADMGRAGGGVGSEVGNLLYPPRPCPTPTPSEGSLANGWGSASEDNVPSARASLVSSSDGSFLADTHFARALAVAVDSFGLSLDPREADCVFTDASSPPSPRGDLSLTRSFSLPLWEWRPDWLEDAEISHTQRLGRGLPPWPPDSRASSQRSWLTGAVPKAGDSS

Assay [3] concerns the target T1, full-length human Robo 4 (on cells). The source holds these as a separate data set.
Assay [4] has the same target. This is another data set of the same source.

B1: Molecule L, 2+1 Fab-Fab-CrossFab (VH/VL exchange in CD3 binder, CD3 binder V9, Robo 4 binders 01F05) (bispecific antibody)
chain 1: QVQLKQSGAELVKPGASVKISCKTSVYTFTYGYMHWVEQKPGQGLEWIGRIDPDSGNSMYNQKFQGRATLTRDKSSSTVYMELRSLTSEDSAVYYCARSMRYSGYRDYALDLWGQGTQVTVSSASTKGPSVFPLAPSSKSTSGGTAALGCLVKDYFPEPVTVSWNSGALTSGVHTFPAVLQSSGLYSLSSVVTVPSSSLGTQTYICNVNHKPSNTKVDKKVEPKSCDGGGGSGGGGSQVQLKQSGAELVKPGASVKISCKTSVYTFTYGYMHWVEQKPGQGLEWIGRIDPDSGNSMYNQKFQGRATLTRDKSSSTVYMELRSLTSEDSAVYYCARSMRYSGYRDYALDLWGQGTQVTVSSASTKGPSVFPLAPSSKSTSGGTAALGCLVKDYFPEPVTVSWNSGALTSGVHTFPAVLQSSGLYSLSSVVTVPSSSLGTQTYICNVNHKPSNTKVDKKVEPKSCDGGGGSGGGGSDIQMTQSPSSLSASVGDRVTITCRASQDIRNYLNWYQQKPGKAPKLLIYYTSRLESGVPSRFSGSGSGTDYTLTISSLQPEDFATYYCQQGNTLPWTFGQGTKVEIKSSASTKGPSVFPLAPSSKSTSGGTAALGCLVKDYFPEPVTVSWNSGALTSGVHTFPAVLQSSGLYSLSSVVTVPSSSLGTQTYICNVNHKPSNTKVDKKVEPKSC
chain 2: QLVLTQSPSASASLGASVKLTCTLSSQHSSYGITWLQQHPDKAPKYVMYLKSDGSHTKGADIPDRFSGSSSGVHRYLSISNVQPEDEAIYFCVTYDSTHVFGSGTQLTVLGQPKAAPSVTLFPPSSEELQANKATLVCLISDFYPGAVTVAWKADSSPVKAGVETTTPSKQSNNKYAASSYLSLTPEQWKSHRSYSCQVTHEGSTVEKTVAPTECS
chain 3: EVQLVESGGGLVQPGGSLRLSCAASGYSFTGYTMNWVRQAPGKGLEWVALINPYKGVSTYNQKFKDRFTISVDKSKNTAYLQMNSLRAEDTAVYYCARSGYYGDSDWYFDVWGQGTLVTVSSASVAAPSVFIFPPSDEQLKSGTASVVCLLNNFYPREAKVQWKVDNALQSGNSQESVTEQDSKDSTYSLSSTLTLSKADYEKHKVYACEVTHQGLSSPVTKSFNRGEC
In the case of B1, in assay [1], the “EC50 of T-cell mediated killing of HUVECs (LDH release, human PBMCs, E:T 10:1), 24 h” value was determined as 0.372 nM and the “EC50 of T-cell mediated killing of HUVECs (LDH release, human PBMCs, E:T 10:1), 48 h” value turned out to be 0.236 nM.

B2: Molecule M, 2+1 CrossFab-IgG, inverted, with charge modifications (VH/VL exchange in CD3 binder, charge modification in Robo 4 binders, CD3 binder of SEQ ID … (bispecific antibody)
chain 1: QVQLKQSGAELVKPGASVKISCKTSVYTFTYGYMHWVEQKPGQGLEWIGRIDPDSGNSMYNQKFQGRATLTRDKSSSTVYMELRSLTSEDSAVYYCARSMRYSGYRDYALDLWGQGTQVTVSSASTKGPSVFPLAPSSKSTSGGTAALGCLVEDYFPEPVTVSWNSGALTSGVHTFPAVLQSSGLYSLSSVVTVPSSSLGTQTYICNVNHKPSNTKVDEKVEPKSCDKTHTCPPCPAPEAAGGPSVFLFPPKPKDTLMISRTPEVTCVVVDVSHEDPEVKFNWYVDGVEVHNAKTKPREEQYNSTYRVVSVLTVLHQDWLNGKEYKCKVSNKALGAPIEKTISKAKGQPREPQVCTLPPSRDELTKNQVSLSCAVKGFYPSDIAVEWESNGQPENNYKTTPPVLDSDGSFFLVSKLTVDKSRWQQGNVFSCSVMHEALHNHYTQKSLSLSP
chain 2: not shown
chain 3: EVQLLESGGGLVQPGGSLRLSCAASGFTFSTYAMNWVRQAPGKGLEWVSRIRSKYNNYATYYADSVKGRFTISRDDSKNTLYLQMNSLRAEDTAVYYCVRHGNFGNSYVSWFAYWGQGTLVTVSSASVAAPSVFIFPPSDEQLKSGTASVVCLLNNFYPREAKVQWKVDNALQSGNSQESVTEQDSKDSTYSLSSTLTLSKADYEKHKVYACEVTHQGLSSPVTKSFNRGEC
chain 4: QLVLTQSPSASASLGASVKLTCTLSSQHSSYGITWLQQHPDKAPKYVMYLKSDGSHTKGADIPDRFSGSSSGVHRYLSISNVQPEDEAIYFCVTYDSTHVFGSGTQLTVLGQPKAAPSVTLFPPSSKKLQANKATLVCLISDFYPGAVTVAWKADSSPVKAGVETTTPSKQSNNKYAASSYLSLTPEQWKSHRSYSCQVTHEGSTVEKTVAPTECS
On to B2, for which, in assay [2], the “EC50 of T-cell mediated killing of MS-1 cells (LDH release, human PBMCs, E:T 10:1), 24 h” value worked out at 0.275 nM and the “EC50 of T-cell mediated killing of MS-1 cells (LDH release, human PBMCs, E:T 10:1), 48 h” value amounted to 0.119 nM. Also, in assay [3], the “EC50 of T-cell mediated killing of HUVECs (LDH release, human PBMCs, E:T 10:1), 24 h” value was 0.173 nM and the “EC50 of T-cell mediated killing of HUVECs (LDH release, human PBMCs, E:T 10:1), 48 h” value amounted to 0.125 nM.

B3: Molecule H, 1+1 Fab-CrossFab (VH/VL exchange in CD3 binder, CD3 binder V9, Robo 4 binder 7G2) (bispecific antibody)
chain 1: not shown
chain 2: EIVLTQSPGTLSLSPGERATLSCRASQSVSSSYLAWYQQKPGQAPRLLIYGASSRATGIPDRFSGSGSGTDFTLTISRLEPEDFAVYYCQQGQLPPRTFGQGTKVEIKRTVAAPSVFIFPPSDEQLKSGTASVVCLLNNFYPREAKVQWKVDNALQSGNSQESVTEQDSKDSTYSLSSTLTLSKADYEKHKVYACEVTHQGLSSPVTKSFNRGEC
chain 3: EVQLVESGGGLVQPGGSLRLSCAASGYSFTGYTMNWVRQAPGKGLEWVALINPYKGVSTYNQKFKDRFTISVDKSKNTAYLQMNSLRAEDTAVYYCARSGYYGDSDWYFDVWGQGTLVTVSSASVAAPSVFIFPPSDEQLKSGTASVVCLLNNFYPREAKVQWKVDNALQSGNSQESVTEQDSKDSTYSLSSTLTLSKADYEKHKVYACEVTHQGLSSPVTKSFNRGEC
For the molecule B3, in assay [4], the “EC50 of T-cell mediated killing of HUVECs (LDH release, human pan T cells, E:T 5:1, 22 h)” value was found to be 2.76 nM.

B4: Molecule D, 1+1 CrossFab-IgG (VH/VL exchange in CD3 binder, CD3 binder V9, Robo 4 binder 7G2) (bispecific antibody)
chain 1: not shown
chain 2: EIVLTQSPGTLSLSPGERATLSCRASQSVSSSYLAWYQQKPGQAPRLLIYGASSRATGIPDRFSGSGSGTDFTLTISRLEPEDFAVYYCQQGQLPPRTFGQGTKVEIKRTVAAPSVFIFPPSDEQLKSGTASVVCLLNNFYPREAKVQWKVDNALQSGNSQESVTEQDSKDSTYSLSSTLTLSKADYEKHKVYACEVTHQGLSSPVTKSFNRGEC
chain 3: EVQLVESGGGLVQPGGSLRLSCAASGYSFTGYTMNWVRQAPGKGLEWVALINPYKGVSTYNQKFKDRFTISVDKSKNTAYLQMNSLRAEDTAVYYCARSGYYGDSDWYFDVWGQGTLVTVSSASVAAPSVFIFPPSDEQLKSGTASVVCLLNNFYPREAKVQWKVDNALQSGNSQESVTEQDSKDSTYSLSSTLTLSKADYEKHKVYACEVTHQGLSSPVTKSFNRGEC
chain 4: DKTHTCPPCPAPEAAGGPSVFLFPPKPKDTLMISRTPEVTCVVVDVSHEDPEVKFNWYVDGVEVHNAKTKPREEQYNSTYRVVSVLTVLHQDWLNGKEYKCKVSNKALGAPIEKTISKAKGQPREPQVCTLPPSRDELTKNQVSLSCAVKGFYPSDIAVEWESNGQPENNYKTTPPVLDSDGSFFLVSKLTVDKSRWQQGNVFSCSVMHEALHNHYTQKSLSLSPGK
For the molecule B4, the “EC50 of T-cell mediated killing of HUVECs (LDH release, human pan T cells, E:T 5:1, 22 h)” value in assay [4] turned out to be 3.14 nM.

B5: Molecule A, 1+1 CrossFab-IgG (VH/VL exchange in CD3 binder, CD3 binder V9, Robo 4 binder 01F09) (bispecific antibody)
chain 1: not shown
chain 2: QPVLTQSPSASASLGASVKLTCTLNSQFSTYNIGWYQQHRDKPPKYVMFVKGDGGHSKADGIPDRFSGSSSGADRYLTISNIQAEDEAIYFCGADYNNAGQYGCVFGSGTHFTVLGQPKAAPSVTLFPPSSEELQANKATLVCLISDFYPGAVTVAWKADSSPVKAGVETTTPSKQSNNKYAASSYLSLTPEQWKSHRSYSCQVTHEGSTVEKTVAPTECS
chain 3: EVQLVESGGGLVQPGGSLRLSCAASGYSFTGYTMNWVRQAPGKGLEWVALINPYKGVSTYNQKFKDRFTISVDKSKNTAYLQMNSLRAEDTAVYYCARSGYYGDSDWYFDVWGQGTLVTVSSASVAAPSVFIFPPSDEQLKSGTASVVCLLNNFYPREAKVQWKVDNALQSGNSQESVTEQDSKDSTYSLSSTLTLSKADYEKHKVYACEVTHQGLSSPVTKSFNRGEC
chain 4: DKTHTCPPCPAPEAAGGPSVFLFPPKPKDTLMISRTPEVTCVVVDVSHEDPEVKFNWYVDGVEVHNAKTKPREEQYNSTYRVVSVLTVLHQDWLNGKEYKCKVSNKALGAPIEKTISKAKGQPREPQVCTLPPSRDELTKNQVSLSCAVKGFYPSDIAVEWESNGQPENNYKTTPPVLDSDGSFFLVSKLTVDKSRWQQGNVFSCSVMHEALHNHYTQKSLSLSPGK
For B5, in assay [4], the “EC50 of T-cell mediated killing of HUVECs (LDH release, human pan T cells, E:T 5:1, 22 h)” value was found to be 0.137 nM.
